# Results as given in paper PMC6085827.
# Target: S-tagged long RECK isoform (human) (UniProt O95980)
# Assay: co-IP
# Chain of UniProt O95980 (O95980 23-942): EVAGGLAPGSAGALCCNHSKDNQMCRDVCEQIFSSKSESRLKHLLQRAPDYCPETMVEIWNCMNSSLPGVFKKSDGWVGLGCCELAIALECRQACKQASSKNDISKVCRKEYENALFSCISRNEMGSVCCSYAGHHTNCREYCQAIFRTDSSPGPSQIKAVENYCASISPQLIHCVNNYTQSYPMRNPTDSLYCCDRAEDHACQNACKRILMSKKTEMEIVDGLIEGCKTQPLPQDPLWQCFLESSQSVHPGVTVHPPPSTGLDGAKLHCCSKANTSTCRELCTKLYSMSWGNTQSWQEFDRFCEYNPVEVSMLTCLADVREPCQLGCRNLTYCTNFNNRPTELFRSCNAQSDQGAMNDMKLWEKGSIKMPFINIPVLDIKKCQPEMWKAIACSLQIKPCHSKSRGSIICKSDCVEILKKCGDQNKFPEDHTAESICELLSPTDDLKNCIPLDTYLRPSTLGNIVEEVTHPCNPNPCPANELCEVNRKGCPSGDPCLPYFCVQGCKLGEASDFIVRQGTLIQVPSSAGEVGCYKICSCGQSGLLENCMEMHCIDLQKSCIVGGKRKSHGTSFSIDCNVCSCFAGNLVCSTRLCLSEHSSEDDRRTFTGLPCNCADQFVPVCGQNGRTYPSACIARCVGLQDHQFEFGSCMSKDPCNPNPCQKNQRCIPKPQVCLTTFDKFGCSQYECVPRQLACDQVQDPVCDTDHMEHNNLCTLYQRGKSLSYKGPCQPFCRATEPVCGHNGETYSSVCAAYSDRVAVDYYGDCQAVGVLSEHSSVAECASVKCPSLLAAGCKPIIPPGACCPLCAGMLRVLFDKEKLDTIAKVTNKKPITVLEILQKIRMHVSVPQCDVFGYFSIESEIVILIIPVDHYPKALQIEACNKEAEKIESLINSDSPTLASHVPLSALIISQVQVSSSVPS
substance,measurement,value
Flag-tagged short RECK isoform (natural protein),percent reduction of MMP9 co-immunoprecipitated with long RECK,88%
